According to US20140329228A1 (Ushio Denki Kabushiki Kaisha, priority 2011, published 2014):
Marks after values point to notes of the source that are not given here.

How the values were obtained:
Assay type in all cases: binding
[1] = Measurement of cannabinoid component THC using fluoro-labeled Fab complex; conditions: 100 μg/mL THC versus absence of antigen, Ex/Em 530/580
[2] = Fluorescence enhancement of fluoro-labeled Fab complex / scFv with ketamine; conditions: for Fluorescence enhancement: 1.0 mg/mL Ketamine versus absence of antigen, Ex/Em 530/580
[3] = biological target: HSA (Homo sapiens, UniProt P02768); experiment: Fluorescence emission spectrum measurement, different-color double-label anti-SA Fab complex with HSA; conditions: antigen HSA; ratio to no antigen
Source text: Similarly, the different-color double-label Fab complex of the anti-SA antibody prepared in Example 1 comprising a polypeptide containing a heavy chain variable region (VH; SEQ ID NO: 12) of an anti-SA antibody labeled with a CR110, TAMRA, or ATTO 655 fluorescent dye and an antibody heavy chain constant domain (CH1; SEQ ID NO: 6), and a polypeptide containing a light chain variable region (VL; SEQ ID NO: 10) of an anti-SA antibody labeled with a dye differing from the above dye and an antibody light chain constant domain (Cκ; SEQ ID NO: 4) was reacted with antigenic HSA (0 to 100 μM), and then fluorescence intensity was measured. The ratio of the fluorescence intensity at each antigen concentration to the fluorescence intensity when no antigen was present was designated as the “fluorescence intensity ratio” and is shown in the graphs of FIG. 10. […]
Moreover, when irradiated with excitation light with a wavelength of 530 nm, fluorescence intensity ratios obtained at a fluorescence wavelength of about 530 nm in the case of CR110_TAMRA was higher than those of no_TAMRA, because of the quenching effect due to the interaction between the fluorescent dyes. […]

[4] = Measurement of cotinine using fluoro-labeled Fab complex; conditions: 3.5 μg/mL Cotinine versus absence of antigen, Ex/Em 530/580
[5] = Measurement of ractopamine using fluoro-labeled Fab complex; conditions: 3.4 μg/mL Ractopamine versus absence of antigen, Ex/Em 530/580
[6] = Measurement of clenbuterol using fluoro-labeled Fab complex; conditions: 16 μg/mL Clenbuterol versus absence of antigen; Ex/Em 480/530
[7] = Fluorescence enhancement of fluoro-labeled Fab complex with MDA; conditions: antigen MDA 100 μg/mL versus absence of antigen
[8] = Fluorescence enhancement of fluoro-labeled Fab complex / scFv with morphine; conditions: antigen Morphine 100 μg/mL versus absence of antigen
[9] = Fluorescence enhancement of fluoro-labeled Fab complex / scFv with cocaine; conditions: antigen Cocaine 100 μg/mL versus absence of antigen

B1: Anti-THC: same-color double-label Fab complex of anti-THC antibody; TAMRA-labeled VL (SEQ ID NO: 29) and VH (SEQ ID NO: 30) (antibody, V domains shown)
VH: EVKLVESGGGLVKPGGSLKLSCAASGFTFNNYVMVWLRQTPEKRLEWVASISRGGSTYYPDSVKGRFTISRDNARNILYLQMSSLRSEDTAMYYCVRGTTIVAGDVWGAGTTVTVSS
VL: DIVLTQSPTTMAASPGEKITITCSASSSISSNYLHWYQQKPGFSPKLLIYRTSNLASGVPARFSGSGSGTSYSLTIGTMEAEDVATYYCQQGSSIPLTFGAGTKLELKR
modifications: Fab; TAMRA labels; THC-VH-30; THC-VL-29
For B1, the Fluorescence enhancement [1] was 1.3*^1 and the Fluorescence enhancement ([1]; listed as anti-THC) was 1.3.

B2: Anti-Ketamine: same-color double-label Fab complex of anti-ketamine antibody; TAMRA-labeled VL (SEQ ID NO: 31) and VH (SEQ ID NO: 32) (antibody, V domains shown)
VH: QVQLKESGPGLVAPSQSLSITCTVSGFALTGYGVNWVRQPPGKGLEWLGMIWGDGNTDYNSALKSRLSISKDNSKSQVFLKMNSLQTDDTARYYCARGNGYFYVLDYWGQGTSVTVSS
VL: QAVVTQESALTTSPGETVTLTCRSSTGAVTTSNYANWVQEKPDHLFTGLIGGTNNRAPGVPARFSGSLIGDKAALTITGAQTEDEAIYFCSLWYSNHLVFGGGTKLTVLGQ
modifications: Fab; TAMRA labels; Keta-VH-32; Keta-VL-31
In the case of B2, the Fluorescence enhancement [2] is reported as 2.0*^2 and the Fluorescence enhancement ([2]; listed as anti-ketamine) is reported as 2.0.

B3: CR110_TAMRA: different-color double-label Fab complex of anti-SA antibody; CR110-labeled VH (SEQ ID NO: 12)+CH1, TAMRA-labeled VL (SEQ ID NO: 10)+Cκ (antibody, V domains shown)
VH: EVQLLESGGGLVQPGGSLRLSCAASGFTFSSYAMSWVRQAPGKGLEWVSHISPYGANTRYADSVKGRFTISRDNSKNTLYLQMNSLRAEDTAVYYCAKGLRAFDYWGQGTLVTVSS
VL: DIQMTQSPSSLSASVGDRVTITCRASQSISSYLNWYQQKPGKAPKLLIYRASLLQSGVPSRFSGSGSGTDFTLTISSLQPEDFATYYCQQGRDRPATFGQGTKVEIKR
modifications: CH1 and Ckappa constant domains; CR110 and TAMRA labels; anti-SA antibody VH; anti-SA antibody VL
With B3 the maximum fluorescence enhancement [3] was 75 fold.

B4: Anti-cotinine: same-color double-label Fab complex of anti-cotinine antibody; TAMRA-labeled VL (SEQ ID NO: 19) and VH (SEQ ID NO: 20) (antibody, V domains shown)
VH: QQQLVESGGRLVTPGGSLTLTCTASGFSLNNYWMSWVRQAPGKGLEWIGDIHGNRGFNYHASWAKGRFTVSRTSTTVDLRMTSLTTEDTAIYFCARADDSGSHDIWGPGTLVTVSS
VL: ELDLTQTPSPVSAAVGDTVTINCQSSQSVYSAKLSWYQQKPGQPPKLLIYYGSTLASGVPSRFKGSGSGTQFSLTISDVQCADAATYYCQGTYYGPDWYFAFGGGTEVVVKR
modifications: Fab; TAMRA labels; Coti-VH-20; Coti-VL-19
For B4, the Fluorescence enhancement [4] was 1.9*^2 and the Fluorescence enhancement ([4]; listed as anti-cotinine) was 1.9.

B5: Anti-Ractopamine: same-color double-label Fab complex of anti-ractopamine antibody; TAMRA-labeled VL (SEQ ID NO: 17) and VH (SEQ ID NO: 18) (antibody, V domains shown)
VH: DVQLVESGPGLVKPSQSLSLTCTVTGYSITSDYAWNWIRQFPGNKLEWMGYIFYSGSTSYNPSLKSRISITRDTSKNQFFLQLNSVTTEDTATYFCARLAYYYDYDGYAMDYWGQGTSVTVSS
VL: DILMTQTPLSLPVSLGDQASISCRSSQNIVHSDGNTYLEWYLQKPGQSPKLLISKVSNRFSGVPDRFSGSGSGTDFTLKISRVEAEDLGIYYCFQGSHVPWTFGGGTKLEIKR
modifications: Fab; TAMRA labels; Ract-VH-18; Ract-VL-17
With B5 the Fluorescence enhancement [5] was 2.3*^1 and the Fluorescence enhancement ([5]; listed as anti-ractopamine) was 2.3.

B6: Anti-Clenbuterol: different-color double-label Fab complex of anti-clenbuterol antibody; CR110-labeled VL (SEQ ID NO: 15)+Cκ, TAMRA-labeled VH (SEQ ID NO: 16)+CH1 (antibody, V domains shown)
VH: QVKLQESGGGLVKPRGSLKLSCAASGFTFSSYDMSWVRQTPEKRLEWVASIRSGGYYTLYPDSVKGRFTISRDNVKNTLYLQMSSLRSEDTAMYYCSRDGNDEYFDVWGAGTTVTVSS
VL: DIELTQSPAILSASPGEKVTMTCSANSSVSYMHWYQQKSRTSPKLWIYDTSKLASGVPGRFSGSGSGNSYSLTISSMEAEDVATYYCFQGSKYPFTFGSGTRLEIKR
modifications: Ckappa and CH1 without entry; CR110, TAMRA labels; Clen-VH-16; Clen-VL-15
With B6 the Fluorescence enhancement [6] was 1.5.

B7: Anti-Cocaine: same-color double-label Fab complex of anti-cocaine antibody; TAMRA-labeled VL (SEQ ID NO: 27) and VH (SEQ ID NO: 28) (antibody, V domains shown)
VH: DVTLQESGGGLVQPGGSMKLSCAASGFTFSDAWVDWVRQSPGKGLEWVAEIRNKANNHATKYTESVKGRFTISRDDSKSSVYLQMNSLRAEDTGIYYCTSVPQLGRGFAYWGQGTLVTVSS
VL: DIVMTQAAPSVPVTPGESVSISCRSSKSLLHSNGYTYLHWFLQRPGQSPQLLIYRVSNLASGVPDRFSGSGSGTAFTLRFSRVEAEDVGVYYCMQHLEYPFTFGSGTKLEIKR
modifications: Fab; TAMRA labels; Coca-VH-28; Coca-VL-27
With B7 the “Fluorescence enhancement in the presence of 100 μg/mL antigen” value (shortened to “Fluorescence enhancement in the presence”) [7] was 0.9, the “Fluorescence enhancement in the presence” value [8] was 0.9 and the “Fluorescence enhancement in the presence” value ([2]; antigen Ketamine 100 μg/mL versus absence of antigen) was 0.9. The “Fluorescence enhancement in the presence” value [9] was 3.7.
